Assay results from patent US6022708.

Legend:
[1] = target: Myelin Basic Protein (Sigma)
[2] = target: transcription factor GLI, the mammalian homologue of the Drosophila cubitus interruptus (Ci)

## human fused (wild type, full length), HA epitope tagged (enzyme)
[1]
  amount of 32P incorporated into MBP, in vitro kinase assay on anti-HA immunoprecipitates (times higher compared to controls): 2

## fused KD (kinase domain of human fused alone), HA epitope tagged (enzyme)
[1]
  amount of 32P incorporated into MBP, in vitro kinase assay on anti-HA immunoprecipitates (times higher compared to controls): 3

## human fused (wild type, full length), HA epitope tagged
[2]
  GLI activity, luciferase reporter p9XGliLuc in C3H10T1/2 cells: 9.5 fold
